{"source": "paper PMC10379010", "about": "“Short Peptides of Innate Immunity Protein Tag7 (PGLYRP1) Selectively Induce Inhibition or Activation of Tumor Cell Death via TNF Receptor” (International Journal of Molecular Sciences, 2023)", "origin": "cited, not measured here", "system": "TNFR1", "design": "method as in 3 sources, ref [14] = [14]; PMID 32093269; doi:10.3390/cells9020488; 14. Romanova E.A. Sharapova T.N. Telegin G.B. Minakov A.N. Chernov A.S. Ivanova O.K. Bychkov M.L. Sashchenko L.P. Yashin D.V. A 12-mer Peptide of Tag7 (PGLYRP1) Forms a Cytotoxic Complex with Hsp70 an ||| ref [15] = [15]; PMID 34163464; doi:10.3389/fimmu.2021.622471; 15. Telegin G.B. Chernov A.S. Kazakov V.A. Romanova E.A. Sharapova T.N. Yashin D.V. Gabibov A.G. Sashchenko L.P. A 8-mer Peptide of PGLYRP1/Tag7 Innate Immunity Protein Binds to TNFR1 Receptor and Inh ||| ref [10],[11] = [10]; PMID 26183779; doi:10.1074/jbc.M115.639732; 10. Yashin D.V. Ivanova O.K. Soshnikova N.V. Sheludchenkov A.A. Romanova E.A. Dukhanina E.A. Tonevitsky A.G. Gnuchev N.V. Gabibov A.G. Georgiev G.P. Tag7 (PGLYRP1) in Complex with Hsp70 Induces Altern || [11]; PMID 32636466; doi:10.1038/s41598-020-68088-x; 11. Sharapova T.N. Romanova E.A. Soshnikova N.V. Belogurov A.A. Jr. Lomakin Y.A. Sashchenko L.P. Yashin D.V. Autoantibodies from SLE patients induce programmed cell death in murine fibroblast cells th", "settings": "death under action of a specific ligand of TNFR1 or DNA-hydrolyzing autoantibodies; ref [10],[11]", "data": [{"molecule": "Tag7: innate immunity protein Tag7 (PGLYRP1), ligand of the TNFR1 receptor; recombinant (protein) QETEDPACCSPIVPRNEWKALASECAQHLSLPLRYVVVSHTAGSSCNTPASCQQQARNVQHYHMKTLGWCDVGYNFLIGEDGLVYEGRGWNFTGAHSGHLWNPMSIGISFMGNYMDRVPTPQAIRAAQGLLACGVAQGALRSNYVLKGHRDVQRTLSPGNQLYHLIQNWPHYRSP", "values": [{"measurement": "Inhibition of death of tumor cells, Tag7", "result": "inhibits the death of tumor cells"}]}]}
